In paper PMC3299322 one finds binding efficiency (%) data, which are given here for one substance.

For assay [1], the target named is Tissue factor (residues 1–209), soluble, immobilised on CNBr-activated sepharose-4B. The assay can be described thus: radioligand binding; as a1 but after 1 hour of incubation of 111In-DTPA-rFVIIa in 270 uL human serum at room temperature before the sepharose was added; binding 1 h at room temperature; median of 3.
Assay [2] shares this target. Put plainly: radioligand binding; as a1 but in human serum, 0 hour (no incubation in serum before the sepharose was added); binding 1 h at room temperature; median of 3.
Assay [3] has the same target. The assay can be described thus: radioligand binding; 111In-DTPA-rFVIIa incubated 1 h at room temperature with TF (1–209)-sepharose (50% suspension) in assay buffer (10 mM glycyl-glycine, 150 mM NaCl, 10 mM CaCl2, 0.1% BSA, pH 7.5); beads and filtrate separated in Spin-X filter tubes and counted; median of 3 labellings.

Turning to “111In-DTPA-rFVIIa (111Indium-labelled, DTPA-conjugated recombinant activated coagulation factor VII) (enzyme)”, the binding efficiency (%) worked out at 36% in assay [1], 39% in assay [2] and 48% in assay [3].
